Values of other authors, collected in paper PMC8760628.

Target: IL-18 mature (Homo sapiens) (UniProt Q14116)
Sequence (Q14116 37-193): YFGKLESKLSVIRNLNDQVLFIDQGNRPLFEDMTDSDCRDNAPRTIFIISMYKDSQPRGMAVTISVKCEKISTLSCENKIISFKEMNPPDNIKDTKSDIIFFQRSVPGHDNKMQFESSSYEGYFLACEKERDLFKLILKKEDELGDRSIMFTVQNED

IL-18BP, sequence (O95998 31-194): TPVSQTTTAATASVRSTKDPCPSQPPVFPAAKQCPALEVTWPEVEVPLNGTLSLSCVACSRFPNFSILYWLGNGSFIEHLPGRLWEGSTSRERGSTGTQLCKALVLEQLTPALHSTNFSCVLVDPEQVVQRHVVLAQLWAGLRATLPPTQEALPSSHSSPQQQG

**Q.** Which Kd does the source give for IL-18BP (from UniProt O95998) here?
**A.** 0.5 nM
